In paper PMC5702669:

Legend:
[1] = target: full-length PfMyoA heavy chain with C-terminal biotin tag and FLAG tag (P. falciparum) (UniProt Q8IDR3)
skeletal muscle actin = skeletal muscle actin (UniProt P68135)

Substance: T. gondii essential light chain TgELC1 (from UniProt A0A125YUL9 1-87) (natural protein)
- in vitro motility speed of PfMyoA-MTIP with TgELC1, no calcium [1]: 3.3 μm/s

Substance: PF3D7_0107000, putative centrin-1 (PfPC1), N-terminal His6 tag (natural protein)
- in vitro motility speed of PfMyoA-MTIP with PF3D7 0107000 added, no calcium [1]: 1.5 μm/s

Substance: PfMD T417A (phospho-null at the TEDS site) (from UniProt Q8IDR3 1-768) (domain or fragment)
- Km (actin concentration at half-maximal activity) of the actin-activated ATPase, 30 °C, 5 mM NaCl (skeletal muscle actin): 9.8 µM

Substance: PfMD, PfMyoA motor domain (Met-1–Lys-768) with C-terminal FLAG tag (from UniProt Q8IDR3 1-768) (domain or fragment)
- Km (actin concentration at half-maximal activity) of the actin-activated ATPase, 30 °C, 5 mM NaCl (skeletal muscle actin): 13 µM

Substance: PfMD T417D (phosphomimic at the TEDS site) (from UniProt Q8IDR3 1-768) (domain or fragment)
- Km (actin concentration at half-maximal activity) of the actin-activated ATPase, 30 °C, 5 mM NaCl (skeletal muscle actin): 4.4 µM

Substance: P. falciparum essential light chain (PfELC), untagged (from UniProt Q8IJM4 1-134) (natural protein)
- in vitro motility speed of PfMyoA-MTIP with PfELC, no calcium [1]: 3.8 μm/s
- in vitro motility speed of PfMyoA-MTIP with PfELC, with calcium (100 μM) [1]: 3.8 μm/s

Substance: PF3D7_0627200, putative myosin light chain (PFF1320c) (from UniProt C6KTA8 1-139) (natural protein)
- in vitro motility speed of PfMyoA-MTIP with PF3D7 0627200 added, no calcium [1]: 1.1 μm/s
- in vitro motility speed of PfMyoA-MTIP with PF3D7 0627200 added, with calcium [1]: 0.6 μm/s
